Source: publication PMC4212957, “The serodominant secreted effector protein of Salmonella, SseB, is a strong CD4 antigen containing an immunodominant epitope presented by diverse HLA class II alleles” (Immunology, 2014)

Tests used:
HLA-DRB1*15:01 = target: T1, HLA-DRB1*15:01 (Homo sapiens, UniProt P01903+P01911); assay: Peptide/HLA-DR binding, competitive ELISA; conditions: ratio IC50 of peptide / IC50 of reference peptide A3 152–166, lower = higher affinity, ratio 20 or less high, 20–100 moderate, three independent experiments
T1 construct: HLA-DR heterodimers were purified from homozygous Epstein–Barr virus B-lymphoblastoid cell lines; host or cells: homozygous EBV B-lymphoblastoid cell line
Protocol: (§1) HLA-DR heterodimers were purified from homozygous Epstein–Barr virus B-lymphoblastoid cell lines (HPA Culture Collections, Salisbury, UK) by affinity chromatography with the monomorphic HLA-DRα monoclonal antibody, L243.[29],[30] Binding of the SseB peptide panel to the HLA-DR molecules HLA-DRB1*01:01, 03:01, 04:01, 07:01, 09:01, 11:01, 12:02, 15:01, 15:02 was assessed by competitive ELISA, as previously described, using an automated workstation.[29],[30] We evaluated the peptide concentration able to prevent binding of 50% of the labelled peptide (IC50). Data were expressed as relative affinity: ratio of the IC50 of the peptide to the IC50 of the reference peptide, which is a high binder to the HLA class II molecule. Unlabelled forms of the biotinylated peptides were used as reference peptides.

HLA-DRB1*12:02 = HLA-DRB1*12:02 (Homo sapiens, UniProt P01903+P01911, A100R/A169T/D57E/D86V/F55L/H45Y/I96F/K41T/L162R/M171V/P40S/Q125H/Q178H/Q39Y/Q99D/R42G/S66L/T262R/V114A/V67L/W38E/Y59H/Y61H/Y89S); assay: Peptide/HLA-DR binding, competitive ELISA; conditions: ratio IC50 of peptide / IC50 of reference peptide TFR 141–155, lower = higher affinity, ratio 20 or less high, 20–100 moderate, three independent experiments
Protocol: as §1

HLA-DRB1*09:01 = target: T2, HLA-DRB1*09:01 (Homo sapiens, UniProt P01903+P01911, A100R/A103E/D57H/D86V/F55Y/F60I/F76Y/I96F/K127E/L162R/M171V/P40D/Q125H/Q99R/R33Q/R42F/S133A/S66N/T210M/V115G/W38K/Y107V/Y59G/Y89S); assay: Peptide/HLA-DR binding, competitive ELISA; conditions: ratio IC50 of peptide / IC50 of reference peptide CTP 427–441, lower = higher affinity, ratio 20 or less high, 20–100 moderate, three independent experiments
T2 construct: HLA-DR heterodimers were purified from homozygous Epstein–Barr virus B-lymphoblastoid cell lines; host or cells: homozygous EBV B-lymphoblastoid cell line
Protocol: as §1

HLA-DRB1*03:01 = target: T3, HLA-DRB1*03:01 (Homo sapiens, UniProt P01903+P01911, A100K/A102G/A103R/A169T/F55Y/I96L/K41T/L162R/M171V/P40S/Q125H/Q178H/Q39Y/R42S/S66N/T106N/T262R/W38E/Y61H); assay: Peptide/HLA-DR binding, competitive ELISA; conditions: ratio IC50 of peptide / IC50 of reference peptide MT2-16, lower = higher affinity, ratio 20 or less high, 20–100 moderate, three independent experiments
T3 construct: HLA-DR heterodimers were purified from homozygous Epstein–Barr virus B-lymphoblastoid cell lines; host or cells: homozygous EBV B-lymphoblastoid cell line
Protocol: as §1

HLA-DRB1*15:02 = target: T4, HLA-DRB1*15:02 (Homo sapiens, UniProt P01903+P01911, V115G); assay: Peptide/HLA-DR binding, competitive ELISA; conditions: ratio IC50 of peptide / IC50 of reference peptide TFR 607–620, lower = higher affinity, ratio 20 or less high, 20–100 moderate, three independent experiments
T4 construct: HLA-DR heterodimers were purified from homozygous Epstein–Barr virus B-lymphoblastoid cell lines; host or cells: homozygous EBV B-lymphoblastoid cell line
Protocol: as §1

HLA-DRB1*07:01 = HLA-DRB1*07:01 (Homo sapiens, UniProt P01903+P01911, A100R/A102G/A103Q/D57E/D86V/E43K/F76Y/K127E/L162R/M171V/P40G/Q125H/Q99D/R33Q/R42Y/R54Q/S133A/S66F/T210M/V115G/Y107V/Y59L/Y89S); conditions: competitive ELISA; ratio IC50 of peptide / IC50 of reference peptide HA 306–318; lower = higher affinity; ratio 20 or less high, 20–100 moderate; three independent experiments
HLA-DRB1*11:01 = HLA-DRB1*11:01 (Homo sapiens, UniProt P01903+P01911, A100R/A169T/A87E/I96F/K41T/L162R/M171V/P40S/Q125H/Q178H/Q39Y/Q99D/R42S/S66Y/T262R/V115G/W38E); conditions: competitive ELISA; ratio IC50 of peptide / IC50 of reference peptide HA 306–318; lower = higher affinity; ratio 20 or less high, 20–100 moderate; three independent experiments
HLA-DRB1*01:01 = HLA-DRB1*01:01 (Homo sapiens, UniProt P01903+P01911, A100R/D57E/F55L/F60I/F76Y/I96L/L162R/M171V/P40L/Q125E/R42F/V115G/Y59C); conditions: competitive ELISA; ratio IC50 of peptide / IC50 of reference peptide HA 306–318; lower = higher affinity; ratio 20 or less high, 20–100 moderate; three independent experiments
HLA-DRB1*04:01 = HLA-DRB1*04:01 (Homo sapiens, UniProt P01903+P01911, A100K/A169T/F76Y/I96L/K127E/L162R/M171V/N62H/P40V/Q125Y/R42H/S133A/S149N/S66Y/V115G/V209L/W38E); conditions: competitive ELISA; ratio IC50 of peptide / IC50 of reference peptide HA 306–318; lower = higher affinity; ratio 20 or less high, 20–100 moderate; three independent experiments
[1] = tested on: draining lymph node cells of HLA-DR4 transgenic mice; assay: Murine IFN-γ ELISpot, HLA-DR4 transgenic mice primed with SseB; conditions: mouse, in vivo
Source text: Mice transgenic for HLA-DR1 (that is, HLA-DRA1*0101/HLA-DRB1*0101) and HLA-DR4 (that is, HLA-DRA1*0101/HLA-DRB1*0401)[24]–[26] were bred and housed in the Centre for Biological Services at the Hammersmith campus, Imperial College London, UK, in accordance with Home Office regulations and College ethics review. Both transgenic lines are maintained on a C57BL/6 background as homozygotes for knockout of murine MHC Class II H2-Aβ.[27]
HLA-DR1 or HLA-DR4 transgenic mice were primed, by subcutaneous injection into the footpad, with 25 μg of recombinant SseB protein administered as a 1 : 1 emulsion with TiterMax® Gold (CytRx Corporation, Los Angeles, CA). Ten days after priming, popliteal draining lymph nodes were harvested and stimulated, in triplicate, at 2 × 10^5 cells per well with 25 μg of SseB peptide or recombinant protein in pre-coated murine IFN-γ ELISpot plates (2BScientific, Upper Heyford, Oxfordshire, UK). Culture medium was RPMI-1640 containing 2 mM L-glutamine, 50 U/ml penicillin G, 50 μg/ml streptomycin sulphate, 50 μM β-mercaptoethanol and 10% fetal calf serum. Cells were cultured at 37° and in 5% CO2 for 72 hr before assay development using a biotinylated anti-IFN-γ antibody, a horseradish peroxidase detection antibody and TMB substrate (2BScientific). Developed plates were left to dry before spot counting using an AID ELISpot reader (Autoimmun Diagnostika GMBH). Positive epitopes for a given transgenic line were defined as those where more than half of assayed animals gave a greater number of spot-forming cells than 2 SD over the mean of the no protein/peptide control.
Fig 1 Definition of HLA-DR specific T-cell epitopes in DR1 and DR4 transgenic mice. (a) HLA-DR1 (n = 5) and (b) HLA-DR4 (n = 6) mice were footpad primed with ssEB protein in combination with TiterMax® Gold adjuvant. Draining lymph node (DLN) cells were assayed by ELISpot at day 10 for interferon-γ (IFN-γ) T-cell responses to ssEB peptides and protein. A peptide was defined as containing a T-cell epitope for DR1 or DR4 HLA molecules if more than half of the mice assayed gave a greater number of spot-forming cells than 2 SD over the mean of the no peptide/protein control. The 2 SD value for each transgenic line is shown by a dotted line.

Row | Substance | Relative binding affinity of peptide to HLA-DR molecules DRB1*1501 (HLA-DRB1*15:01) | Relative binding affinity of peptide to HLA-DR molecules DRB1*1202 (HLA-DRB1*12:02) | Relative binding affinity of peptide to HLA-DR molecules DRB1*0901 (HLA-DRB1*09:01) | Relative binding affinity of peptide to HLA-DR molecules DRB1*0301 (HLA-DRB1*03:01) | Relative binding affinity of peptide to HLA-DR molecules DRB1*1502 (HLA-DRB1*15:02) | Relative binding affinity of peptide to HLA-DR molecules DRB1*0701 (HLA-DRB1*07:01) | Relative binding affinity of peptide to HLA-DR molecules DRB1*1101 (HLA-DRB1*11:01) | Relative binding affinity of peptide to HLA-DR molecules DRB1*0101 (HLA-DRB1*01:01) | Relative binding affinity of peptide to HLA-DR molecules DRB1*0401 (HLA-DRB1*04:01) | IFN-γ ELISpot recall response / CD4 epitope in HLA-DR4 transgenic mice [1]
1 | 14: SseB overlapping library peptide, residues 131–150 (KLDKGGLQAIKAALDNDANR) [Peptide 14] | 10 | 71 | 50 | > 119 | > 3 333 | 17 | > 278 | 335 | 13 | CD4 epitopes detected
2 | 10: SseB overlapping library peptide, residues 91–110 (GDAKTKEEVPEDVIKYMRDN) [Peptide 10] | 58 | > 136 | > 689 | > 119 | > 3 333 | 87 | > 278 | > 4149 | > 145 | –
3 | 17: SseB overlapping library peptide, residues 161–180 (TIQKMSQELNAVLTQLTGLI) [Peptide 17] | > 270 | > 136 | > 689 | > 119 | > 3 333 | 8 | > 278 | 18 | > 145 | –
4 | 16: SseB overlapping library peptide, residues 151–170 (NTDLMSQGQITIQKMSQELN) [Peptide 16] | > 270 | 52 | > 689 | > 119 | > 3 333 | > 336 | > 278 | 964 | > 145 | –
5 | 6: SseB overlapping library peptide, residues 51–70 (MVIQAIANNKFIEVQKNAER) [Peptide 6] | 1 | 2 | > 689 | > 119 | 577 | 2 | 8 | 235 | 6 | –
6 | 13: SseB overlapping library peptide, residues 121–140 (DYMAKYGDHGKLDKGGLQAI) [Peptide 13] | 12 | > 136 | > 689 | > 119 | 2 000 | > 336 | > 278 | 2958 | > 145 | –
7 | MSSGNILWGSQNPIVFKNSF [Peptide 1] | 7 | 3 | > 689 | > 119 | > 3 333 | 6 | > 278 | 447 | 12 | –
8 | 8: SseB overlapping library peptide, residues 71–90 (ARNTQEKSNEMDEVIAKAAK) [Peptide 8] | > 270 | > 136 | > 689 | > 119 | > 3 333 | > 336 | > 278 | > 4149 | > 145 | –
